B1: codon optimized MTF construct: DNA construct encoding MTF with codons changed to the most common ones in humans (nucleic acid)
DNA: ATGTTCGGCGTGAAGTGCCACAACACCGACAGCGAGCCCCTGAAGAACGAGGACCTGCTGAAGAACCTGCTGACCATGGGCGTGGACATCGACATGGCCCGCAAGCGCCAGCCCGGCGTGTTCCACCGCATGATCACCAACGAGCAGGACCTGAAGATGTTCCTGCTGAGCAAGGGCGCCAGCAAGGAGGTGATCGCCAGCATCATCAGCCGCTACCCCCGCGCCATCACCCGCACCCCCGAGAACCTGAGCAAGCGCTGGGACCTGTGGCGCAAGATCGTGACCAGCGACCTGGAGATCGTGAACATCCTGGAGCGCAGCCCCGAGAGCTTCTTCCGCAGCAACAACAACCTGAACCTGGAGAACAACATCAAGTTCCTGTATAGCGTGGGCCTGACCCGCAAGTGCCTGTGCCGCCTGCTGACCAACGCCCCCCGCACCTTCAGCAACAGCCTGGACCTGAACAAGCAGATGGTGGAGTTCCTGCAGGCCGCCGGCCTGAGCCTGGGCCACAACGACCCCGCCGACTTCGTGCGCAAGATCATCTTCAAGAACCCCTTCATCCTGATCCAGAGCACCAAGCGCGTGAAGGCCAACATCGAGTTCCTGCGCAGCACCTTCAACCTGAACAGCGAGGAGCTGCTGGTGCTGATCTGCGGCCCCGGCGCCGAGATCCTGGACCTGAGCAACGACTACGCCCGCCGCAGCTACGCCAACATCAAGGAGAAGCTGTTCAGCCTGGGCTGCACCGAGGAGGAGGTGCAGAAGTTCGTGCTGAGCTACCCCGACGTGATCTTCCTGGCCGAGAAGAAGTTCAACGACAAGATCGACTGCCTGATGGAGGAGAACATCAGCATCAGCCAGATCATCGAGAACCCCCGCGTGCTGGACAGCAGCATCAGCACCCTGAAGAGCCGCATCAAGGAGCTGGTGAACGCCGGCTGCAACCTGAGCACCCTGAACATCACCCTGCTGAGCTGGAGCAAGAAGCGCTACGAGGCCAAGCTGAAGAAGCTGAGCCGCTTCGCCCAGGCCGGCGAGGGCACCCTGAGCGAGGCCCTGCTGCAGCTGCAGTTCGACGACGAGGACCTGGGCGCCCTGCTGGGCAACAGCACCGACCCCGCCGTGTTCACCGACCTGGCCAGCGTGGACAACAGCGAGTTCCAGCAGCTGCTGAACCAGGGCATCCCCGTGGCCCCCCACACCACCGAGCCCATGCTGATGGAGTACCCCGAGGCCATCACCCGCCTGGTGACCGGAGCACAAAGACCCCCTGATCCTGCGCCAGCACCTCTTGGAGCACCTGGCCTGCCCAACGGCCTGCTGAGCGGCGACGAGGACTTCAGCAGCATCGCCGACATGGACTTCAGCGCCCTGCTGAGCCAGATCAGCAGC
B2: SEQ ID NO: 51: negative control promoter comprising 5 scrambled DNA binding sites spaced by 10 bp (nucleic acid)
DNA: ATTCTACCGTCTCGGGCCATTAAAGGCATATGATTCTACCGTCTCGGGCCATTAAAGGCATATGATTCTACCGTCTCGGGCCATTAAAGGCATATGATTCTACCGTCTCGGGCCATTAAAGGCATATGATTCTACCGTCTCGGGCCATTA

Tests used:
Format in all cases: cell-based, human
[1] = tested on: Response Element-driven mCerulean reporter; experiment: Dose dependency of mCerulean reporter expression on transfected MTF construct amount, HEK293; settings: HEK293, 24-well plates, 100 ng reporter construct, Hill equation, Hill coefficient 1
Experimental: By transfecting different amounts of the codon optimized MTF construct into HEK293 cells the inventors established a dose dependency of mCerulean reporter (Gol) expression on the expression levels of MTF (FIG. 3). HEK293 cells in 24-well plates were transfected with 0.75, 3, 6, 12, 24, 48, 96, 192, and 384 ng of MTF construct, 100 ng of reporter construct, and 50 ng of constitutive mCherry transfection control construct. Two days after transfection, the cells were analyzed using flow cytometry. The dose-response curve was modeled as a Hill equation assuming a Hill coefficient of 1.

[2] = tested on: reporter construct with MTERF1 binding sites (SEQ ID NO: 42) upstream a minimal TATA box driving mCerulean; experiment: mCerulean reporter co-transfection with MTF construct in Hela cells (microscopy, flow cytometry)
From the text: The inventors engineered an exemplary “Human-derived transcriptional activator protein” (HumTAP) transactivation system by engineering a HumTAP transactivator and a promoter comprising the Response Elements/MTERF1 binding sites that is operably linked to a gene of interest. A prototype HumTAP protein was made by fusing a peptide consisting of amino acids 58 through 399 of the human MTERF1 gene (MTERF158-399 (SEQ ID NO: 1), Uniprot Q99551) to a peptide consisting of amino acids 430 through 551 of the RELA protein (RelA430-551 (SEQ ID NO: 3), Uniprot Q04206). This fusion is henceforth referred to as MTERF158-399::RelA430-551 (or “MTF”; SEQ ID NO: 100). A DNA construct was made with a strong EF1A promoter driving a constitutive expression of MTF (SEQ ID NO: 101) in human cells (“MTF construct”).
To construct a promoter with Response Elements/MTERF1 binding sites driving the gene of interest, the inventors placed MTERF1 binding sites (SEQ ID NO: 42) upstream a minimal TATA box (SEQ ID NO: 103). An mCerulean fluorescent reporter representing the gene of interest (Gol) was placed downstream of the TATA box. Each of these is referred to as a reporter construct. […] Using flow cytometry, relative mCerulean levels were measured and calculated by normalization to the transfection control in Hela cells (FIG. 1C). […]

[3] = tested on: Response Element-driven mCerulean reporter (MTERF1 binding sites, SEQ ID NO: 42); experiment: mCerulean reporter co-transfection with HumTAP constructs in HEK293 cells (flow cytometry)
From the text: To construct a promoter with Response Elements/MTERF1 binding sites driving the gene of interest, the inventors placed MTERF1 binding sites (SEQ ID NO: 42) upstream a minimal TATA box (SEQ ID NO: 103). An mCerulean fluorescent reporter representing the gene of interest (Gol) was placed downstream of the TATA box. Each of these is referred to as a reporter construct. Five different reporter constructs were made comprising respectively 3, 5, 7, 9, and 11 MTERF1 binding sites 6 base pairs apart upstream of the TATA box (FIG. 1A; SEQ ID NO: 41, 44, 45, 46 and 47, respectively). They were co-transfected with the MTF construct into Hela cells. […] Using flow cytometry, relative mCerulean levels were measured and calculated by normalization to the transfection control in Hela cells (FIG. 1C). […] Next, reporter plasmids with varying spacer lengths (0, 6 bp and 10 bp; SEQ ID NO: 48, 44 and 49, respectively) (FIG. 1F) between a fixed number of REs (i.e. 5 REs/MTERF1 binding sites) were transfected with the MTF construct. […] This was confirmed using flow cytometry (FIG. 1H). […]
With the goal to engineer stronger and possibly shorter HumTAPs, the inventors fused the MTERF158-399 peptide (SEQ ID NO: 1) to a variety of transactivation domains and transfected HEK293 cells with those constructs and the reporter construct comprising 5×RE/MTERF1 binding sites without a spacer between them (SEQ ID NO: 48).
First, MTERF158-399 (SEQ ID NO: 1) was fused with different subsequences of RelA. RelA361-551 (SEQ ID NO: 27) corresponds to the sequence used in the construction of the bacterial-derived synthetic TF PIT2 [19], while RelA342-551 (SEQ ID NO: 29) contains all annotated transactivation domains according to domain annotation under Uniprot Q04206 (https://www.uniprot.org/uniprotkb/Q04206/entry). […] We also fused MTERF158-399 (SEQ ID NO: 1) to a set of transactivation domains previously found to be strong activators with a small genetic footprint (FIG. 4B).
To further decrease the DNA footprint of a HumTAP, the inventors investigated to what degree the DNA binding domain may be reduced. To this end, the inventors created 3 versions of MTERF1 subsequences fused to RelA430-551 (SEQ ID NO: 3). MTERF173-399 (SEQ ID NO: 7), MTERF1104-399 (SEQ ID NO: 9), and MTERF1135-399 (SEQ ID NO: 11) are subunits of MTERF1 without its mitochondrial transfer peptide (MTERF11-57; SEQ ID NO: 37) that either lack only the first […] N-terminal amino acids (MTERF58-72; SEQ ID NO: 39) or additionally, also lack the first (MTERF173-98; SEQ ID NO: 104) or both the first and second (MTERF1104-134; SEQ ID NO: 106) mterf motifs (FIG. 5A). The removal of N-terminal domains reduces the genetic footprint of a HumTAP (FIG. 5B). These constructs were co-transfected into HEK293 cells with the reporter construct containing 5×RE without a spacer in its promoter (SEQ ID NO: 48).
In addition to RelA430-551 (termed “v1”), the inventors tested three alternative subsequences: v2) RelA342-551 (SEQ ID NO: 29), which contains all transactivation domains as annotated on UniProt Q04206; v3) RelA361-551 (SEQ ID NO: 27), which is identical to the peptide used in the construction of PIT2 [2]; and v4) RelA521-551 (SEQ ID NO: 31), which constitutes only the transactivation domain 1 (TA1). The protein domains WW (SEQ ID NO: 21), KRAB of ZNF473 (SEQ ID NO: 23), Nuc-rec-co-Act (SEQ ID NO: 25), LMSTEN (SEQ ID NO: 19), and FoxoTAD (SEQ ID NO: 17) were recently identified as strong transactivators. To assess their functionality in the HumTAP context, the inventors created fusion proteins between each of them and MTERF158-399 (SEQ ID NO: 1) (FIG. 9A).
Upon co-transfection of HEK293 cells with plasmids encoding pEF1a-driven expression of the fusion HumTAPs, a Response Element-driven mCerulean reporter protein, and a mCherry transfection control, all peptides derived from RelA except TA1 mediated high levels of reporter gene expression. […]

Molecule	EC10 of transfected MTF construct ([1]; two days after transfection) [ng]	EC50 of transfected MTF construct ([1]; two days after transfection) [ng]	theoretical EC90 of transfected MTF construct ([1]; slight drop at higher amounts) [ng]	increase of reporter gene expression by codon optimization ([2]; Hela cells, 5xRE 6 bp spacer reporter (SEQ ID NO: 44), versus naturally used codons)	effect of codon optimization on reporter fluorescence levels ([3]; HEK cells)	mCerulean reporter (Gol) expression ([2]; Hela cells co-transfected with MTF construct, microscopy and flow cytometry)	mCerulean reporter (Gol) expression ([3]; HEK293 cells co-transfected with MTF construct, microscopy and flow cytometry)
B1	1.25	11.24	101	ca. 3 fold	no significant effect		
B2						did not lead to mCerulean expression	showed the same behavior
